B1: RCP-13: recombinant polypeptide, human vitronectin positions 1-55, 56-129 (protein)
chain: GPLGDQESCKGRCTEGFNVDKKCQCDELCSYYQSCCTDYTAECKPQVTRGDVFTMPEDEYTVYDDGEEKNNATVHEQVGGPSLTSDLQAQSKGNPEQTPVLKPEEEAPAPEVGASKPEGIDSRPETLHPGRPQP
modifications: Synthetic Peptide RCP-13
B2: RCP-15: recombinant polypeptide, human vitronectin positions 56-459 (protein)
chain: GPLGYTVYDDGEEKNNATVHEQVGGPSLTSDLQAQSKGNPEQTPVLKPEEEAPAPEVGASKPEGIDSRPETLHPGRPQPPAEEELCSGKPFDAFTDLKNGSLFAFRGQYCYELDEKAVRPGYPKLIRDVWGIEGPIDAAFTRINCQGKTYLFKGSQYWRFEDGVLDPDYPRNISDGFDGIPDNVDAALALPAHSYSGRERVYFFKGKQYWEYQFQHQPSQEECEGSSLSAVFEHFAMMQRDSWEDIFELLFWGRTSAGTRQPQFISRDWHGVPGQVDAAMAGRIYISGMAPRPSLAKKQRFRHRNRKGYRSQRGHSRGRNQNSRRPSRATWLSLFSSEESNLGANNYDDYRMDWLVPATCEPIQSVFFFSGDKYYRVNLRTRRVDTVDPPYPRSIAQYWLGCPAPGHL
modifications: Synthetic Peptide RCP-15
B3: RCP-1: recombinant polypeptide, human vitronectin positions 1-55 and 269-459, methionine on the N-terminal (protein)
chain: MDQESCKGRCTEGFNVDKKCQCDELCSYYQSCCTDYTAECKPQVTRGDVFTMPEDEPSQEECEGSSLSAVFEHFAMMQRDSWEDIFELLFWGRTSAGTRQPQFISRDWHGVPGQVDAAMAGRIYISGMAPRPSLAKKQRFRHRNRKGYRSQRGHSRGRNQNSRRPSRATWLSLFSSEESNLGANNYDDYRMDWLVPATCEPIQSVFFFSGDKYYRVNLRTRRVDTVDPPYPRSIAQYWLGCPAPGHL
modifications: Synthetic Peptide RCP-1
B4: RCP-11: recombinant polypeptide corresponding to the sequence of natural human vitronectin, positions 1-459 (protein)
chain: GPLGDQESCKGRCTEGFNVDKKCQCDELCSYYQSCCTDYTAECKPQVTRGDVFTMPEDEYTVYDDGEEKNNATVHEQVGGPSLTSDLQAQSKGNPEQTPVLKPEEEAPAPEVGASKPEGIDSRPETLHPGRPQPPAEEELCSGKPFDAFTDLKNGSLFAFRGQYCYELDEKAVRPGYPKLIRDVWGIEGPIDAAFTRINCQGKTYLFKGSQYWRFEDGVLDPDYPRNISDGFDGIPDNVDAALALPAHSYSGRERVYFFKGKQYWEYQFQHQPSQEECEGSSLSAVFEHFAMMQRDSWEDIFELLFWGRTSAGTRQPQFISRDWHGVPGQVDAAMAGRIYISGMAPRPSLAKKQRFRHRNRKGYRSQRGHSRGRNQNSRRPSRATWLSLFSSEESNLGANNYDDYRMDWLVPATCEPIQSVFFFSGDKYYRVNLRTRRVDTVDPPYPRSIAQYWLGCPAPGHL
modifications: Synthetic Peptide CRP-11
B5: RCP-16: recombinant polypeptide, human vitronectin positions 269-459 (protein)
chain: GPLGPSQEECEGSSLSAVFEHFAMMQRDSWEDIFELLFWGRTSAGTRQPQFISRDWHGVPGQVDAAMAGRIYISGMAPRPSLAKKQRFRHRNRKGYRSQRGHSRGRNQNSRRPSRATWLSLFSSEESNLGANNYDDYRMDWLVPATCEPIQSVFFFSGDKYYRVNLRTRRVDTVDPPYPRSIAQYWLGCPAPGHL
modifications: Synthetic Peptide RCP-16

What was measured:
[1] = Evaluation of adsorbability with respect to culture dish; format: physicochemical; details: FIG. 1; for adsorbability with respect to the plate (in words): 0 to 200 pmol/cm^2 added, 2 hours at 37° C., compared with RCP-11
Method: Each of the polypeptides obtained as above was diluted with a predetermined buffer such that they could be added to wells at a predetermined final concentration of 0 pmol/cm^2 to 200 pmol/cm^2. Thereafter, each of the polypeptides was added in an amount of 64 μL to a plasma-treated 96-well plate made of polystyrene (Tissue Culture-Treated, Falcon). Each of the polypeptides was allowed to adsorb onto the plate by being incubated for 2 hours at 37° C., and then the wells were washed twice with PBS, thereby obtaining surfaces coated with each of the polypeptides of RCP-1 to RCP-16.
Among the surfaces coated with each of the polypeptides obtained as above, the surfaces coated with RCP-1 and RCP-11 to RCP-16 were applied with 64 μL of a borate buffer and 64 μL of 1 N NaOH, followed by incubation for 24 hours at 80° C. and 100% humidity. After the resultant was air-cooled, 75 μL of a borate buffer was added to each well, and 50 μL of a reaction solution obtained by mixing OPA (o-phthalaldehyde: Wako Pure Chemical Industries, Ltd./methanol solution (160 mg/ml)) with N-acetyl-L-cysteine (NAC: Wako Pure Chemical Industries, Ltd.)/borate buffer solution (2 mg/ml) at a ratio of 1:100 (mass ratio) was further added thereto. After incubation for 30 minutes at 40° C., the fluorescence intensity thereof was measured by using an Envision Multilabel Counter (PerkinElmer Inc.) (excitation 355 nm/fluorescence 486 nm). A calibration curve was separately prepared from each of the polypeptide solutions so as to calculate the amount of the polypeptide adsorbed. In FIG. 1, a black rhombus indicates RCP-1, a black square indicates RCP-11, a black triangle indicates RCP-12, a black circle indicates RCP-13, a white rhombus indicates RCP-14, a white square indicates RCP-15, and a white triangle indicates RCP-16.

human iPS cells [2] = test: Evaluation of maintenance of undifferentiated state; format: cell-based; details: for form of the iPS cell colony: FIGS. 3A to 3E, TeSR2, subcultured every six days; for maintenance of the undifferentiated state (NANOG staining): FIGS. 4A to 4E, after culture for 1 month
Method: iPS cells collected in the same manner as in <Cell adhesiveness evaluation 1> were suspended in TeSR2. The iPS cells were seeded into 6-well plate (Tissue culture-treated, Falcon), onto which each of the samples 1, 2, 5, 6, and 7 used in <Cell adhesiveness evaluation 1> was adsorbed in the same manner as in <Cell adhesiveness evaluation 1>, and cultured in a CO2 incubator at 37° C. Except for the day after the seeding, the medium was replaced every day. In the same method as described above, the cells were subcultured every six days. FIGS. 3A to 3E show forms of the iPS cells cultured on each of the samples.
After being cultured for 1 month under the conditions described above, the cells were immobilized using 4% paraformaldehyde and treated with 1% Triton-X/PBS so as to enhance the membrane permeability. After the cells were subjected to a blocking treatment using an Image IT Signal Enhancer (Invitrogen), an anti-human NANOG antibody (AF 1997, R&D Systems, Inc.), an Alexa Fluor 555 binding rabbit anti-goat IgG antibody (Invitrogen), and DAPI (Dojindo Molecular Technologies, Inc.) were added thereto for labeling, and the cells were imaged using a fluorescence microscope. FIGS. 4A to 4E show the fluorescence microscopic images.
FIGS. 3A and 4A show the iPS cells cultured on RCP-1; FIGS. 3B and 4B show the iPS cells cultured on RCP-11; FIGS. 3C and 4C show the iPS cells cultured on natural human vitronectin; FIGS. 3D and 4D show the iPS cells cultured on rLaminin-5; and FIGS. 3E and 4E show the iPS cells cultured on rLaminin-511. The scale bar in the images indicates 100 μm. In FIGS. 3A to 3E, the images on the left side are full images of the colony, and the images on the right side are magnified images. In FIGS. 4A to 4E, the images on the left side are images of the cells stained with DAPI, and the images on the right side are images of the cells stained with an anti-NANOG antibody. The scale bar in FIGS. 3 and 4 indicates 200 μm.

human iPS cells [3] = test: Growth evaluation, growth curves over 8 days; format: cell-based; details: FIG. 2; 250 cells/well
Method: The iPS cells collected in the same manner as in <Cell adhesiveness evaluation 1> were seeded into a 96-well plate, onto which RCP-1, RCP-11, and natural human vitronectin were adsorbed, at a ratio of 250 cells/well and cultured for 8 days in a 5% CO2 incubator at 37° C. The number of adhesive cells after different days of culture was measured in the same manner as in <Cell adhesiveness evaluation 1>, thereby obtaining growth curves. […] In FIG. 2, a black rhombus indicates a case using RCP-1, and a black square indicates a case using RCP-11.

Molecule | amount adsorbed onto the plate relative to the polypeptide including SEQ ID NO: 3 [1] | adsorbability with respect to the plate (in words) [1] | form of the iPS cell colony (human iPS cells [2]) | maintenance of the undifferentiated state (NANOG staining) (human iPS cells [2]) | number of cells on Day 8 of culture relative to the case where RCP-1 was used (human iPS cells [3])
B1 | about 1/4 |  |  |  | 
B2 |  | excellent adsorbability |  |  | 
B3 |  | excellent adsorbability | form specific to undifferentiated cells | strongly expressed NANOG in the entirety of the colony | 
B4 |  |  | form specific to undifferentiated cells | strongly expressed NANOG in the entirety of the colony | about 1/3
B5 |  | excellent adsorbability |  |  | 

From patent US20160244728A1, “CULTURE METHOD FOR PLURIPOTENT STEM CELLS AND KIT AND MEDIUM FOR CULTURE OF PLURIPOTENT STEM CELLS USED THEREIN” (FUJIFILM Corporation, priority 2013, published 2016)
